The text below walks through data of publication PMC6298231.

This assay addresses Thrombospondin-1, full-length 185 kDa protein released by endothelial cells (human (endogenous in microvascular endothelial cells)) (UniProt P07996). The experiment in a line: non-reducing SDS-PAGE with immunoblot. For orientation: In western blotting, separated proteins are transferred to a membrane and probed.

For “Thrombospondin-1, full-length 185 kDa protein released by endothelial cells (from UniProt P07996 19-1170) (natural protein)”, the stoichiometry N (commonly the number of molecules, sites or subunits per partner or assembly) turned out to be 3.
